Measurements as given in patent US20240368668A1, “SUBSTRATES AND BIOMARKERS OF ADAMTS7” (The Broad Institute, Inc., priority 2021, published 2024).
Square brackets hold non-standard residues; d marks the D form. Ends that are not written are not given here.

Molecular target: T1, mouse ADAMTS7 (Mus musculus, UniProt Q68SA9)
T1 construct: Full-length mouse Adamts7 1-1857 (Uniprot Q68SA9, WT or E373Q catalytic mutant); expressed in transfected cells; host or cells: Human Coronary Artery Smooth Muscle Cells (HCA-SMC, Lonza), adenovirus 50 MOI
T1 sequence (Q68SA9 221-1657): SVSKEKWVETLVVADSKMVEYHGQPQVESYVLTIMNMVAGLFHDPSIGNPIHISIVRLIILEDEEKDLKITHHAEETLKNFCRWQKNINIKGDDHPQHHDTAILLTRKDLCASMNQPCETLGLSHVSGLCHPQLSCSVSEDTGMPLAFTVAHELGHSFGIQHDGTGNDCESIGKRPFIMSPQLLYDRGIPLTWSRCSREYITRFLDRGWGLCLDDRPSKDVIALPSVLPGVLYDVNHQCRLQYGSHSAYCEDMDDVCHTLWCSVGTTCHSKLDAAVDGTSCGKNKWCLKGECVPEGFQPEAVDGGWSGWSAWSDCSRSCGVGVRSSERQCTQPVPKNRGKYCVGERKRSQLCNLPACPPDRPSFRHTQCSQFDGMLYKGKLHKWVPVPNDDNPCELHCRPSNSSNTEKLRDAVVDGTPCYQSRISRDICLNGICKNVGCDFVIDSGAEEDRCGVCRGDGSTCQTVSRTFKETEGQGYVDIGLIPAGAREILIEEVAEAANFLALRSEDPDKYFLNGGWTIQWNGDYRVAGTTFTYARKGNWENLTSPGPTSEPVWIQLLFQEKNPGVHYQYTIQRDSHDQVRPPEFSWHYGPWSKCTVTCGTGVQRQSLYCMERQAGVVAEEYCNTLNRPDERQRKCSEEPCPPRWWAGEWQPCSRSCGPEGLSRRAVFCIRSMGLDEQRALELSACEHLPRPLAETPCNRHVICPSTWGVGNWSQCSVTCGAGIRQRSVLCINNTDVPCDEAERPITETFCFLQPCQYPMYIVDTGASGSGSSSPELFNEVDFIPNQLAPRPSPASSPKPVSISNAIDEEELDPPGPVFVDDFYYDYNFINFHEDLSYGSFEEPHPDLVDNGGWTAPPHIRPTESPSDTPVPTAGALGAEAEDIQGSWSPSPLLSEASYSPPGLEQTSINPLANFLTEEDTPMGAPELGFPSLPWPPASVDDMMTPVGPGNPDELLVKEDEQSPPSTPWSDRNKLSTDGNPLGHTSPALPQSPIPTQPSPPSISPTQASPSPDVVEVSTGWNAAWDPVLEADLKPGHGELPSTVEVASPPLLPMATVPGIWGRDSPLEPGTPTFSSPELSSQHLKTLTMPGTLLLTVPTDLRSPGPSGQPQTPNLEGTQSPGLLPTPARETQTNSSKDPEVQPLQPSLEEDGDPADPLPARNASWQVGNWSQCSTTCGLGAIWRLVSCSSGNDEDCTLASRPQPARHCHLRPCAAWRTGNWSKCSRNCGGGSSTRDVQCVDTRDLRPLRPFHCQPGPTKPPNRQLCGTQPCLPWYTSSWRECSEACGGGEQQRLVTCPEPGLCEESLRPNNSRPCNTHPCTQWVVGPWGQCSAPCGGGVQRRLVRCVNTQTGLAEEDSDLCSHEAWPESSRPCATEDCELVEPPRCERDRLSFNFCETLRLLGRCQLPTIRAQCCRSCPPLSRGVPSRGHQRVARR
Experiment: TMT10 TAILS N-terminomics, SMC2 experiment (process replicates, trypsin/AspN digest)
Assay type: cell-based
Conditions: for logFC.mWT.over.Luc: SMC2_TAILS HC; for logFC.mWT.over.Lux: ADAMTS7 WT over luciferase
Procedure, shortened: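 Full-length mouse ADAMTS7 (WT or E373Q mutant, C-terminal 3xFLAG) or luciferase was transduced via adenovirus, 50 MOI, into HCA-SMC (SMC1, SMC2) or HUVEC. SMC1: pooled media, technical triplicates 400 ug; SMC2: process triplicates 300 ug; HUVEC: process triplicates 200 ug, bFGF2 10 ng/ml.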

[1] = log fold change of N-terminal peptide, Ad-mADAMTS7 WT over Luc

Row | logFC.mWT.over.Luc (log fold change, mWT over Luc) | logFC.mWT.over.Lux (log fold change) | Substance | other results
1 | 1.80 | – | ACTG1_105 (LTEAPLNPKANR; listed as Homo sapiens) | –
2 | 4.13 | – | ADAM9_74 (GKEHIIHLER; listed as Homo sapiens) | –
3 | 5.35 | – | ADNP2_375 (SQPVGPVNK; listed as Homo sapiens) | –
4 | 2.37 | – | BMPER_43 (LTGSVAKCENEG; listed as Homo sapiens) | –
5 | 2.91 | – | CAP1_300 (FSAPKPQTSPSPKR; listed as Homo sapiens) | –
6 | 2.33 | – | CEP192_728 (DKSTAGR; listed as Homo sapiens) | –
7 | 1.77 | – | DIS3L_75 (FPELKGIIFMQTACQAVQHQR; listed as Homo sapiens) | –
8 | 1.54 | – | ECM1_38 (FQEVGYAAPPSPPLSR; listed as Homo sapiens) | –
9 | 2.25 | – | ECM1_44 (AAPPSPPLSR; listed as Homo sapiens) | –
10 | 3.18 | – | EEF1G_23 (QYSGAQVR; listed as Homo sapiens) | –
11 | 5.61 | – | EIF4B_426 (QTGTSTTSSR; listed as Homo sapiens) | –
12 | 1.74 | – | FBLN2_665 (FSQVASNTIPLPLPQPNTCK; listed as Homo sapiens) | –
13 | 4.67 | – | FLNA_689 (VNKPAEFTV; listed as Homo sapiens) | –
14 | 3.91 | – | FLNC_2649 (FVGQKNSFTV; listed as Homo sapiens) | –
15 | 1.99 | – | FN1_1693 (LQPTVEYVVSVYAQNPSG; listed as Homo sapiens) | –
16 | 1.67 | – | FN1_1780 (LQGLRPGSEYTVSVVALH; listed as Homo sapiens) | –
17 | 2.43 | – | FN1_1805 (LIGTQSTAIPAPT; listed as Homo sapiens) | –
18 | 3.42 | – | FOXG1_235 (LNKCFVKVPRHY; listed as Homo sapiens) | –
19 | 0.90 | – | HEG1_51 (GLELQLER; listed as Homo sapiens) | –

Row | logFC.mWT.over.Luc (log fold change, mWT over Luc) | logFC.mWT.over.Lux (log fold change) | Substance | other results
20 | 0.87 | – | LASP1_182 (SYGGYKEPAAPVSIQR; listed as Homo sapiens) | –
21 | 2.71 | – | LOXL1_157 (SVSASAFASTYR; listed as Homo sapiens) | –
22 | – | 0.94 | QSOX1_558 (VAAAPELAMGALELESR; listed as Homo sapiens) | –
23 | – | 1.32 | SDC4_106 (LEENEVIPKR; listed as Homo sapiens) | –
24 | – | 2.62 | SERPINH1_27 (AAAPGTAEKLSPKAATLAER; listed as Homo sapiens) | –
25 | – | 1.75 | SMOC1_35 (LISDRDPQCNLHCSR; listed as Homo sapiens) | –
26 | – | 1.29 | SPOCK1_126 (HWVGPSNLVK; listed as Homo sapiens) | –
27 | – | 3.21 | SRGN_50 (LEEKGPMFELLPGESNKIPR; listed as Homo sapiens) | –
28 | – | 4.56 | STC1_37 (QNSAEVVR; listed as Homo sapiens) | –
29 | – | 1.09 | STC2_244 (HHLPEPSSR; listed as Homo sapiens) | –
30 | – | 0.77 | TGFBI_24 (GPAKSPYQLVLQHSR; listed as Homo sapiens) | –
31 | – | 0.85 | TGFBI_43 ([code q]HGPNVCAVQKVIGTNR; not fully specified; listed as Homo sapiens) | –
32 | – | 0.89 | TGFBI_208 (GIVTVNCAR; listed as Homo sapiens) | –
33 | – | 0.84 | TGFBI_524 (SAGLTETLNR; listed as Homo sapiens) | –
34 | – | 4.08 | TG_1017 (GASALLR; listed as Homo sapiens) | –
35 | – | 3.55 | THBS1_972 (QNDPNWVVR; listed as Homo sapiens) | –
36 | – | 2.65 | TMEM132A_52 (LLDAPEHFR; listed as Homo sapiens) | –
37 | – | 4.48 | VASP_229 (AIAGAKLR; listed as Homo sapiens) | –

Further lines, the substance ahead of its results:

Row | Substance | logFC.mWT.over.Luc (log fold change, mWT over Luc) | logFC.mWT.over.Lux (log fold change) | other results
38 | ACTN4_5 (HAANQSYQYGPSSAGNGAGGGGSMG; listed as Homo sapiens) | 2.65 | – | –
39 | ADAM10_86 (FKVETSNKVL; listed as Homo sapiens) | 2.45 | – | –
40 | AMER2_654 (LAGTTIRATACH; listed as Homo sapiens) | 0.95 | – | –
41 | APLP2_452 (LVETHLAR; listed as Homo sapiens) | 2.70 | – | –
42 | APOA1_86 (EQLGPVTQEFW; listed as Homo sapiens) | 1.80 | – | –
43 | CALU_176 (FTAFLHPEEY; listed as Homo sapiens) | 2.37 | – | –
44 | CCL2_28 (INAPVTCCYNFTNR; listed as Homo sapiens) | 1.35 | – | –
45 | CTSB_109 (WAFGAVEAIS; listed as Homo sapiens) | 1.65 | – | –
46 | DBN1_434 (APVEPATA; listed as Homo sapiens) | 1.61 | – | –
47 | ECM1_108 (QEAVPLQK; listed as Homo sapiens) | 3.12 | – | –
48 | EMSY_943 (QTVVQVLAVK; listed as Homo sapiens) | 1.13 | – | –
49 | FN1_35 ([code q]MVQPQSPVAVSQSKPGCY; not fully specified (residue 2); listed as Homo sapiens) | 1.99 | – | –
50 | FN1_99 (DKYTGNTYR; listed as Homo sapiens) | 1.35 | – | –
51 | FN1_607 (SSSGPVEVFIT; listed as Homo sapiens) | 1.08 | – | –
52 | FN1_2113 (FVTHPGY; listed as Homo sapiens) | 1.38 | – | –
53 | FSTL_1290 (LQKHQETA; listed as Homo sapiens) | 2.58 | – | –
54 | HEG1_224 (FQTKSGTAS; listed as Homo sapiens) | 3.54 | – | –

Row | Substance | logFC.mWT.over.Luc (log fold change, mWT over Luc) | logFC.mWT.over.Lux (log fold change) | other results
55 | KCND1_436 (RLAKSGTTNAFLQYKQNGGLE; listed as Homo sapiens) | 1.60 | – | –
56 | KRT28_2 (SLQFSNGSR; listed as Homo sapiens) | 1.88 | – | –
57 | LOX_60 (LGSQYQPQR; listed as Homo sapiens) | 1.25 | – | –
58 | LOX_125 (FQAGYSTSR; listed as Homo sapiens) | 3.45 | – | –
59 | SRGN_51 (EEKGPMFELLPGESNKIPR; listed as Homo sapiens) | – | 1.66 | –
60 | SRGN_60 (LPGESNKIPR; listed as Homo sapiens) | – | 3.57 | –
61 | SRGN_62 (GESNKIPR; listed as Homo sapiens) | – | 2.82 | –
62 | STC2_239 (HGEAGHHLPEPSSR; listed as Homo sapiens) | – | 1.59 | –
63 | TGFBI_50 (AVQKVIGTNR; listed as Homo sapiens) | – | 0.96 | –
64 | TGFBI_276 (TLLAPT[code n]EAFEKIPSETLNR; not fully specified; listed as Homo sapiens) | – | 0.75 | –
65 | TGFBI_497 (VLTPPMGTVMDVLKGDNR; not fully specified (residue 6); listed as Homo sapiens) | – | 0.75 | –
66 | TGFBI_534 (EGVYTVFAPTNEAFR; listed as Homo sapiens) | – | 0.91 | –
67 | TLN1_1501 (HTSALCNSCR; listed as Homo sapiens) | – | 1.31 | –
68 | VASN_138 (HIQPGAFDTLDR; listed as Homo sapiens) | – | 1.63 | –
69 | VCAN_3367 (FKNSSSAK; listed as Homo sapiens) | – | – | logFC.mWT.over.Luc [1]: 0.79
70 | VIM_276 (YESVAAKNLQ; listed as Homo sapiens) | – | – | logFC.mWT.over.Luc [1]: 0.88
